# According to patent US20230016112A1 (IBIO, published 2023):
# T1: full-length CD25 (human, UniProt P01589 22-186, limits assumed)
# T1 construct: The assays used soluble 'full-length CD25'; also called Hu CD25; IL-2 receptor alpha chain
# T1 chain: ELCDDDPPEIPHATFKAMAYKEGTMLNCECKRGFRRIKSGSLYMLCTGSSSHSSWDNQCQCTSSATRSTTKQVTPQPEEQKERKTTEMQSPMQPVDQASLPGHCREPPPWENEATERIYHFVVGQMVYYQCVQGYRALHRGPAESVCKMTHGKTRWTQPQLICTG
# B1: YU403-G05 (antibody)
# scFv: PSGDLSLTCDVSGGSISRSNWWIWVRQPPGKGLEWIGEIYHTGSTNYNPSLKRRVTISVDKSKNQFSLNLSSVTAADTAVYYCARGKGSYAFDIWGLGTMVTVSSVLTQPHSVSESPGKTVTISCTGSGGNIARNYVQWYQHRPGRAPSTVIYEDDRRPSGVPDRFSGSTDISSNSASLTISGLKTEDEADYYCQSYDGNNHMVFGGGTRVTVL
# notes: Tested as full-length human IgG1
# B2: YU392-A09 (antibody)
# scFv: PGATVKISCKVSGYTFTDYYMHWVQQAPGKGLEWMGLVDPEDGETIYAEKFQGRVTITADTSTDTAYMELSSLRSEDTAVYYCATEGRYGMDVWGQGTTVTVSSQAVLTQPPSVSGTPGQRVTISCSGNNFNIGNNLVYWYQQLPGTAPKLLIYANDERPSGVPDRFSGSKSGTSASLAISGLRSEDDADYYCATWDDSLSGVVFGGGTKLTAL
# notes: as for B1
# B3: YU392-B11 (antibody)
# scFv: PGATVKISCKVSGYTFTDYYMHWVQQAPGKGLEWMGLVDPEDGETIYAEKFQGRVTITADTSTDTAYMELSSLRSEDTAVYYCAVEGGRAPGTYYYDSSGLAYWGQGTLVTVSSQAGLTQPPSASGTPGQRVTISCSGSSSNIGSNYVYWYQQLPGTAPKLLIYSNNQRPSGVPDRFSGSKSGTSASLAISGLRSEDEADYYCATWDDSLSGVVFGGGTKLTVL
# notes: as for B1
# B4: YU392-G09 (antibody)
# scFv: QVQLVQSGAEVKKPGSSVKVSCKASGGTFSSYAISWVRQAPGQGLEWMGGIIPIFGTANYAQKFQGRVTITADESTSTAYMELSSLRSEDTAVYYCARDGAGNYDILTGDRSEDYYYYYGMDVWGQGTTVTVSSSYELTQPPSASGAPGQRVSISCSGGYSNIGSNTVNWYQQLPGAAPKFLIYSDNQRPSGVPDRFSGSKSGTSASLAISGLQSEDEADYYCATWDDSLNGPVFGGGTKLTVL
# notes: as for B1
# B5: YU392-G12 (antibody)
# scFv: QVQLQESGSGLVKPSQTLSLTCAVSGGSISSGGYSWSWIRQPPGKGLEWIGYIYHSGSTYYNPSLKSRVTISVDRSKNQFSLKLSSVTAADTAVYYCARAGYYYGMDVWGQGTTVTVSSDIVMTQTPSSLSASVGDRVAITCQASRNIWSYVNWYQQKPGEAPRLLIYGASTLQRGVPSRFSGSGSGTGFTLTINSLQPEDFATYFCQQSHSTPITFGGGTRVDIK
# notes: as for B1
# B6: YU389-A03 (antibody)
# scFv: PSQTLSLTCTVSGGSISSGGYYWSWIRQHPGKGLEWIGYIYYSGSTYYNPSLKSRVTISVDTSKNQFSLKLSSVTAADTAVYYCARGNLWSGYYFWGQGTLVTVSSQSVLTQPPSVSAAPGQKVTISCSGSSSNIGNNFVSWYQQVPGTAPKLLTYDSTKRPAGIPDRFSGSKSGTSATLEIAGLQTGDEADYYCGSWDTNLSGYVFGTGTKVTVL
# notes: as for B1
# B7: YU392-H02 (antibody)
# scFv: QLQLQESGPGLVNLSQTLSLTCTVSGGSISSGGYYWSWIRQHPGKGLEWIGYIYYSGSTYYNPSLKSRVTISVDTSKNQFSLKLSSVTAADTAVYYCARDSSSGPYGMDVWGQGTTVTVSSQSVLTQPPSVSVAPGQTARVTCGGSNIGSQSVHWYQQKPGQAPVLVVYDDYDRPSGIPERFSGSNSGNTATLTITRVDAGDEADYYCQIWDSSSAHVVFGGGTKLTVL
# notes: as for B1
# B8: YU398-A11 (antibody)
# scFv: PGRSLRLSCAASGFTFSSYGMHWVRQAPGKGLEWVAVISYDGSNKYYADSVKGRFTISRDNSKNTLYLQMNSLRAEDTAVYYCAKGQGDGMDVWGQGTTVTVSSYELTQPPSASGTPGQRVTISCSGSSSNVGSRTVSWFQQLPGTAPKLLIYSNNLRPSGVPDRFSGSKSGTSASLAISGLQSEDEADYYCAAWDDSLIGHVFGTGTKVTVV
# notes: as for B1
# B9: YU401-G07 (antibody)
# scFv: LGRSLRLSCAASGFTFSSYGMHWVRQAPGKGLEWVAVISYDGSNKYYADSVKGRFTISRDNSKNTLYLQMNSLRAEDTAVYYCAKGDVNYGMDVWGQGTTVTVSSSYVLTQPPSVSVAPGQTARISCGGSNIGSKTVNWYRKKAGQAPVLVVYDGRDRPSGIPERFSGSNSGNAATLIISRVEVGDEADYYCQVWDTSGDLHWAFGGGTKLTVL
# notes: as for B1
# B10: YU400-D09 (antibody)
# scFv: PGSSVKVSCKASGGTFSSYAISWVRQAPGQGLEWMGGIIPIFGTANYAQKFQGRVTITADESTSTAYMELSSLRSEDTAVYYCARDFNPFSITIFEMDVWGQGTTVTVSSQSVLTQPPSVSAAPGQKVTISCSGSSSNIGNNYVSWYQQLPGTAPKLLIYDNNKRPSGIPDRFSGSKSGTSATLGITGLQTGDEADYYCGTWDSSLSALVFGGGTKLTVL
# notes: as for B1
# B11: YU392-H04 (antibody)
# scFv: QVQLQESGPGLVKPSGTLSLTCAVSGGSISSSNWWSWVRQPPGKGLEWIGEIYHSGSTNYNPSLKSRVTISVDKSKNQFSLKLSSVTAADTAVYYCARVNYGDYDWYFDLWGRGTLVTVSSQPVLTQPPSASGTPGQRVTISCSGSSSNIGSNFVTWYQQLPGTAPKLLIYSNNQRPSGVSDRFSASKSGTSASLAISRLQSQDEAEYYCAAWDDSLRSYVFGSGTKVTVV
# notes: as for B1
# B12: YU392-E06 (antibody)
# scFv: QLQLQESGPGLVKPSGTLSLTCAVSGGSISSSNWWSWVRQPPGKGLEWIGEIYHSGSTNYNPSLKSRVTISVDKSKNQFSLKLSSVTAADTAVYYCARERTHYYYGMDIWGQGTTVTVSSQSVLTQPPSTSGTPGQRVTISCSGSSSNIGSNTVNWYHQLPGTAPRLLIYSNNQRPSGVPDRFSGSKSGTSASLALSGLQSEDEGDYYCAAWDDSLNGYVFGTGTKVTVL
# notes: as for B1
# B13: YU401-B01 (antibody)
# scFv: PGSSVKVSCKASGGTFSSYAISWVRQAPGQGLEWMGGIIPIFGTANYAQKFQGRVTITADESTSTAYMELSSLRSEDTAVYYCAREMYYYYGMDVWGQGTTVTVSSDIVMTQSPSSLSASVGDRVTITCRASQSIITYLNWYQQKPGKVPKLLIYAASSLQSGVPSRFSGSGSGTDFTLTISSLQPEDFATYYCQQSYSTPPTFGQGTKLEIK
# notes: as for B1
# B14: YU392-E05 (antibody)
# scFv: QVQLQESGPGLVKPSGTLSLTCTVSGGSISSSNWWSWVRQPPGKGLEWIGEIYHSGSTNYNPSLKSRVTISVDKSKNQFSLKLSSVTAADTAVYYCARGVIAAAGTYFDYWGQGTLVTVSSQAVLTQPPSASGTPGQRVTISCSGSRPNVASNSVNWYQQFPGTAPRLLIYSDNQRPSGVPDRFSGSKSGTSASLAISGLQFEDEADYYCETWDDSLRGVVFGGGTKVTVL
# notes: as for B1
# B15: YU390-B12 (antibody)
# scFv: PGRSLRLSCAASGFTFSSYGMHWVRQAPGKGLEWVAVISYDGSNKYYADSVKGRFTISRDNSKNTLYLQMNSLRAEDTAVYYCAKELLEGAFDIWGQGTMVTVSSSYVLTQPPSLSVAPGQTARITCGGDNIETKSVHWYQQRPGQAPVLVVYDDDDRPSGIPERFSGSNSGNTATLTISRVEAGDEADYYCQVWDSSSGHREVFGGGTKLTVL
# notes: as for B1
# B16: YU400-B07 (antibody)
# scFv: PGRSLRLSCAASGFTFSSYGMHWVRQAPGKGLEWVAVISYDGSNKYYADSVKGRFTISRDNSKNTLYLQMNSLRAEDTAVYYCAKGDVNYGMDVWGQGTTVTVSSSYVLTQPPSVSVAPGKTARITCGGNNIGSKSVHWYQQKPGQAPVLVVYDDTDRPSGIPERFSGSNSGNTATLTISRVEAGDEADYYCQVWDSSSDLLWVFGGGTKLAVL
# notes: as for B1
# B17: YU397-D01 (antibody)
# scFv: PSGTLSLTCAVSGGSISSSNWWSWVRQPPGKGLEWIGEIYHSGSTNYNPSLKSRVTISVDKSKNQFSLKLSSVTAADTAVYYCARARGGRYFDYWGQGTLVTVSSDIVLTQSPSFLSASVGDRVTITCRASQGISTYLAWYQQKPGTAPKVLMYAASTLHSGVPSRFSGSGSGTEFTLTISSLQPEDFAIYYCQQLNGYPTTFGGGTRVEIK
# notes: as for B1
# Biological target: T1, full-length CD25
# Test: Octet biolayer interferometry, human IgG1 against CD25
row,Kd [nM],Binder
1,31.9,B1
2,12.4,B2
3,65.6,B3
4,20.2,B4
5,25.7,B5
6,9.55,B6
7,10.6,B7
8,12.1,B8
9,15.3,B9
10,54.5,B10
11,9.1,B11
12,8.3,B12
13,70.4,B13
14,16.1,B14
15,13.7,B15
16,57.8,B16
17,3.86,B17
